Reference: patent US20040054131A1 (CHIRON, published 2004)
Changes are numbered by the printed parent chain. Bridges are numbered along the chain shown (N, C = ends). Where no end group is shown, it is not given here.

B1: C19 synthetic peptide (peptide)
peptide: AESGDDYCVLVFTDSAWTKICDWSHFRN
modifications: disulfide 8-21 (inferred)
notes: also called C19 peptide; C19 clone
B2: C19-jun fusion protein (designed binder)
chain: MAESGDDYCVLVFTDSAWTKICDWSHFRNGPGGGSGGGSGGGSGGGSGGGSRCGGRIARLEEKVKTLKAQNSELASTANMLREQVAQLKQKVMNHGGCGGSGGHHHHHH
notes: also called Clone 19-jun protein
B3: C19junΔhep (designed binder)
chain: B2 chain with R56Q, R59Q, K65Q, K68Q
notes: also called C19jun?hep; C19junahep
B4: C19 with truncation of the C-terminal 7 amino acids (peptide)
peptide: AESGDDYCVLVFTDSAWTKIC
B5: FGFR1c extracellular domain-IgG fusion protein (Fc fusion, human, UniProt P11362 22-377, looked up)
chain: RPSPTLPEQAQPWGAPVEVESFLVHPGDLLQLRCRLRDDVQSINWLRDGVQLAESNRTRITGEEVEVQDSVPADSGLYACVTSSPSGSDTTYFSVNVSDALPSSEDDDDDDDSSSEEKETDNTKPNRMPVAPYWTSPEKMEKKLHAVPAAKTVKFKCPSSGTPNPTLRWLKNGKEFKPDHRIGGYKVRYATWSIIMDSVVPSDKGNYTCIVENEYGSINHTYQLDVVERSPHRPILQAGLPANKTVALGSNVEFMCKVYSDPQPHIQWLKHIEVNGSKIGPDNLPYVQILKTAGVNTTDKEMEVLHLRNVSFEDAGEYTCLAGNSIGLSHHSAWLTVLEALEERPAVMTSPLYLEI
notes: range 1-377; also called FGFR-IgG; FGFR ECD; not shown: Fc region of human IgG1

How the values were obtained:
[1] = biological target: B5; experiment: BIAcore real-time kinetic analysis, immobilized FGFR1c ECD, no heparin; approximate apparent affinity
Description: C19 peptide with an intrapeptide disulfide bond was synthesized, purified by HPLC, and characterized by mass spectroscopy. C19junΔhep protein was prepared by changing human c-jun residues Arg276, Arg279, Lys285, and Lys288 in the leucine zipper domain to glutamines. […] The extracellular ligand-binding domain of human FGFR Ic (residues 1-377) and human erythropoietin receptor (residues 1-250) were fused to the Fe region of human IgGI, expressed in baculovirus and purified by protein A affinity chromatography. […] PDGF receptor Fc fusion protein was from R&D Systems.

[2] = biological target: FGF receptor (FGFR) on Swiss 3T3 cells; experiment: cell-based or functional assay
[3] = biological target: B5; experiment: deletion mutant analysis; method not stated
[4] = biological target: T1, F12 phagemid (F12 clone peptide displayed on M13 p8) (bacteriophage M13); experiment: displacement of Europium-labeled FGFR-IgG by unlabeled FGFR-IgG from F12 phagemid captured on anti-M13 antibody (time-resolved fluorescence)
T1 construct: Assayed as whole phagemid particles captured by anti-M13 antibody; The frame A-X3-C-X10-C-X3-(GGS)2GG-p8 is inferred from the 18mer two-cysteine pattern of F12; not shown: M13 p8 coat protein, peptide fused to its N-terminus
Description: Nunc Maxisorp 96-well plates were coated with […] anti-M13 antibody in […] 50 mM Na₂CO₃ pH 9.6 and blocked using the conditions described in Example 2. Phagemid (˜10¹¹ cfu) were applied to wells in binding buffer for 1h and washed 6 times with PBS, 0.05% Tween 20, and 2 times with Delphia Wash Buffer (E&G Wallac). […] Wells were washed 8× in Delphia Wash Buffer, treated with 100 μL of Delphia Enhancer Solution and fluorescence measured. IC₅₀ values were determined from four-parameter fits to displacement plots.

Row | Binder | Kd [1] [nM] | other results
1 | B1 | 400 | –
2 | B2 | 10 | EC50 of mitogenesis (BrdU incorporation) in Swiss 3T3 cells with 15 U/ml heparin [2]: 0.24 nM
3 | B3 | 10 | –
4 | B4 | – | fold loss of affinity against untruncated C19 [3]: ~15 fold
5 | B5 | – | IC50 [4]: ~12 nM
